Source: patent US20230406950A1 (LYVGEN BIOPHARMA, published 2023)

B1: Ly759 (bispecific antibody, human IgG1, kappa)
heavy: QVQLQESGPGLVKPSETLSLTCTVSGFSLTSYNVHWIRQPPGKGLEWIGVIWSGVRTDYNSVLKPRVTISVDTSKNQFSLKLSSVTAADTAVYYCARGTYDDNYHDVMDAWGQGTLVTVSSASTKGPSVFPLAPSSKSTSGGTAALGCLVKDYFPEPVTVSWNSGALTSGVHTFPAVLQSSGLYSLSSVVTVPSSSLGTQTYICNVNHKPSNTKVDKKVEPKSCDKTHTCPPCPAPELLGPSVFLFPPKPKDTLMISRTPEVTCVVVDVSHEDPEVKFNWYVDGVEVHNAKTKPREEQYNSTYRVVSVLTVLHQDWLNGKEYKCKVSNKALPAPIEKTISKAKGQPREPQVYTLPPSREEMTKNQVSLTCLVKGFYPSDIAVEWESNGQPENNYKTTPPVLDSDGSFFLYSKLTVDKSRWQQGNVFSCSVMHEALHNHYTQKSLSLSPGGGGGSGGGGSGGGGSGGGGSQVQLVQSGAEVKKPGASVKVSCKASGYTFAGFEMHWVRQAPGQGLEWMGAIDPKTGGTDYNQKFKDRVTMTRDTSISTAYMELSRLRSDDTAVYYCARDLGYFDVWGQGTLVTVSSGGGGSGGGGSGGGGSGGGGSDIQMTQSPSSLSASVGDRVTITCRASQDIRSNLNWYQQKPGGAVKLLIYYTSRLHSGVPSRFSGSGSGTDYTLTISSLQPEDFATYFCQQSEKLPRTFGGGTKVEIR
light: EIVLTQSPATLSLSPGERATLSCRASKSVRTGMHWYQQKPGQAPRLLIYGASNLESGIPARFSGSGSGTDFTLTISSLEPEDFAVYYCQQSWNHFTFGQGTKLEIKRTVAAPSVFIFPPSDEQLKSGTASVVCLLNNFYPREAKVQWKVDNALQSGNSQESVTEQDSKDSTYSLSSTLTLSKADYEKHKVYACEVTHQGLSSPVTKSFNRGEC
notes: Anti-GITR/CD137: TM685-derived heavy chain fused to Ly1630 scFv (VH-VL); TM685 light chain
B2: Ly757 (bispecific antibody, human IgG1, kappa)
heavy: QVQLVQSGAEVKKPGASVKVSCKASGYTFAGFEMHWVRQAPGQGLEWMGAIDPKTGGTDYNQKFKDRVTMTRDTSISTAYMELSRLRSDDTAVYYCARDLGYFDVWGQGTLVTVSSASTKGPSVFPLAPSSKSTSGGTAALGCLVKDYFPEPVTVSWNSGALTSGVHTFPAVLQSSGLYSLSSVVTVPSSSLGTQTYICNVNHKPSNTKVDKKVEPKSCDKTHTCPPCPAPELLGPSVFLFPPKPKDTLMISRTPEVTCVVVDVSHEDPEVKFNWYVDGVEVHNAKTKPREEQYNSTYRVVSVLTVLHQDWLNGKEYKCKVSNKALPAPIEKTISKAKGQPREPQVYTLPPSREEMTKNQVSLTCLVKGFYPSDIAVEWESNGQPENNYKTTPPVLDSDGSFFLYSKLTVDKSRWQQGNVFSCSVMHEALHNHYTQKSLSLSPGK
light: DIQMTQSPSSLSASVGDRVTITCRASQDIRSNLNWYQQKPGGAVKLLIYYTSRLHSGVPSRFSGSGSGTDYTLTISSLQPEDFATYFCQQSEKLPRTFGGGTKVEIRRTVAAPSVFIFPPSDEQLKSGTASVVCLLNNFYPREAKVQWKVDNALQSGNSQESVTEQDSKDSTYSLSSTLTLSKADYEKHKVYACEVTHQGLSSPVTKSFNRGECGGGGSGGGGSGGGGSGGGGSQVQLQESGPGLVKPSETLSLTCTVSGFSLTSYNVHWIRQPPGKGLEWIGVIWSGVRTDYNSVLKPRVTISVDTSKNQFSLKLSSVTAADTAVYYCARGTYDDNYHDVMDAWGQGTLVTVSSGGGGSGGGGSGGGGSGGGGSEIVLTQSPATLSLSPGERATLSCRASKSVRTGMHWYQQKPGQAPRLLIYGASNLESGIPARFSGSGSGTDFTLTISSLEPEDFAVYYCQQSWNHFTFGQGTKLEIK
notes: Anti-GITR/CD137: Ly1630 heavy chain; Ly1630 light chain fused to TM685 scFv (VH-VL)

Target: T1, human CD137 expressed on cells (human, UniProt Q07011 24-255)
T1 construct: whole, on cells; also called 4-1BB; TNFRSF9
T1 sequence (Q07011 24-255): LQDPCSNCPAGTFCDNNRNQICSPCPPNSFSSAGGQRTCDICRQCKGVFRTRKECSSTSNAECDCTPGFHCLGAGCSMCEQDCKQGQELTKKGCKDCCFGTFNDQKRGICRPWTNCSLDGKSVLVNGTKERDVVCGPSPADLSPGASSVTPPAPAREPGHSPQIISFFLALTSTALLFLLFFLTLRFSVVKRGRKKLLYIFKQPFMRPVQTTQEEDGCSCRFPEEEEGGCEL
Assay: FACS on CHO cells expressing human CD137 (MFI)
Experimental: Anti-GITR/CD137 bi-specific antibodies were analyzed by FACS for their binding properties to human GITR and/or human CD137 expressed on CHO cells. Briefly, cultured cells were harvested, counted and cell viability was evaluated using the Trypan Blue exclusion method. Viable cells were then adjusted to 2×10⁶ cells per mL in PBS containing 2% BSA. 100 μL of this cell suspension were further aliquoted per well into a V-bottom 96-well plate. […] After incubation for 2 hours at 4° C., cells were centrifuged (3 min, 1000× g), washed with 250 μL/well BSA-containing FACS Stain Buffer, resuspended and incubated for an additional 1 hour at 4° C. with 100 μL/well fluorochrome-conjugated anti-IgG antibody for detection of the bisepecific antibody. Cells were then washed with 250 μL/well BSA-containing FACS Stain Buffer, resuspended in 100 μL/well FACS Stain Buffer, acquired and analyzed using a FACS machine. Binding of the bispecific antibodies to human GITR or human CD137 expressing CHO cells were evaluated and the mean fluorescence intensity is plotted in histograms or dot plots.

| Binder | EC50 (read off the curve) [µg/mL] |
| --- | --- |
| B1 | ~0.6 |
| B2 | ~0.2 |
